Here are results for four molecules from patent publication US20240343793A1 (TILLOTTS PHARMA, published 2024).

One assay addresses human C1q (human, UniProt P02745 23-245; P02746 28-253; P02747 29-245). Briefly: ELISA: antibody titrated onto plate-coated human TNFα, then human C1q at 0.5 µg/mL, detected with rabbit anti-human C1q and HRP anti-rabbit IgG, absorbance 620 nm. For orientation: ELISA stands for enzyme-linked immunosorbent assay.
Assay [1] addresses T1, CD16a(V) (UniProt P08637 17-208).
T1 construct: His-tagged; also called Fcγ receptor CD16a(V)
Put plainly: SPR (Biacore), His-tagged FcγR captured on anti-His chip, antibody as analyte.
Experimental: (§1) Affinity to FcγRs was measured by Biacore. A CM5 chip was prepared using standard amine immobilisation Biacore procedures. Upon insertion of a CM5 chip the system was primed and then normalised with BIA-normalizing solution (Biacore Preventative Maintenance Kit 2). The chip was added to the system with Phosphate Buffered Saline Tween-20 (PBS-T) running buffer; prior to immobilisation the chip surface was primed with three injections of 50 mM NaOH. FcγRs were immobilised on the chip surface using a His-tag capture system. The anti-His tag chip was prepared according to the Biacore kit instructions, with ˜12000 RU's of the antibody deposited on all 4 flow cells. To remove non-covalently bound material from all the chip flow cells, three 30 second 10 mM glycine pH 1.5 washes were performed. The Fcγ receptors were diluted in PBS-T to a range of 0.5-2 μg/mL, with 2.5-5.0 μL injected onto the chip generating capture levels between 60 and 200 RU's. Antibodies were diluted into PBS-T prior to analysis. Single cycle kinetics were used to estimate the steady state affinity. For each single cycle analysis cycle a titration of 5 antibody concentrations were injected over the FcγR ligand and then the dissociation of the complex was measured. The surface was regenerated using the recommended solution, 10 mM glycine pH 1.5 for the anti-His capture surface. A double referencing method was employed in which data from the ligand bound capture surface (fc 2 and 4) were subtracted from the references surfaces where no ligand was captured (fc 1 and 3 respectively). Blank injections of buffer were run for every antibody titration cycle and then subtracted from analyte injection cycles, to correct for small changes in the ligand capture surface. All analysis was performed at 25° C. and the sample rack was incubated at 10° C. during experimental runs. Each experiment was run at least three times.

The target in the next assay is T2, CD32a(H) (UniProt P12318 36-218).
T2 construct: His-tagged; also called Fcγ receptor CD32a(H)
T2 sequence (looked up): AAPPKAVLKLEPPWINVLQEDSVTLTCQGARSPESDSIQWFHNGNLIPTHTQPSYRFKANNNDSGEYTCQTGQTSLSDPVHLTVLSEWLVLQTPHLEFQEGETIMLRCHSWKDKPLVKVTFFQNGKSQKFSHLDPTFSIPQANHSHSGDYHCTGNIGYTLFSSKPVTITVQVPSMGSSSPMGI
Described as above.

For a further assay, the target named is T3, CD64 (UniProt P12314 16-288, limits assumed).
T3 construct: His-tagged (captured on an anti-His chip); also called Fcγ receptor CD64
T3 sequence (P12314 16-288 limits assumed): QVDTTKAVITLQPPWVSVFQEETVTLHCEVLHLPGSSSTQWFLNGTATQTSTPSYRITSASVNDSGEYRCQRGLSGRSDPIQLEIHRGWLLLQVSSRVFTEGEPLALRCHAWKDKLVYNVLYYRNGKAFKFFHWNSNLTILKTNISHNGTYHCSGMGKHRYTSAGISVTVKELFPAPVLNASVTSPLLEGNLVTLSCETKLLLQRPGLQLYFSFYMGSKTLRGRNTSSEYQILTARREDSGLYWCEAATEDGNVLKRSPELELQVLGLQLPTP
Described as above.

The target in another assay is T4, CD32b (UniProt P31994 46-217).
T4 construct: His-tagged; also called Fcγ receptor CD32b
T4 sequence (looked up): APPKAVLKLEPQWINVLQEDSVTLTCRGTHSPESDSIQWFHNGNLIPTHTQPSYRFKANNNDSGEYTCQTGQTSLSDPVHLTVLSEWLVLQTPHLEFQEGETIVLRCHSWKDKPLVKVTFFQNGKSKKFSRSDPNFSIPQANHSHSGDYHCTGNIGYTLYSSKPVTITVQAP
Described as above.

For assay [2], the target named is T5, human TNFα (human, UniProt P01375 77-233).
T5 construct: also called recombinant TNFα
T5 sequence (P01375 77-233 limits assumed): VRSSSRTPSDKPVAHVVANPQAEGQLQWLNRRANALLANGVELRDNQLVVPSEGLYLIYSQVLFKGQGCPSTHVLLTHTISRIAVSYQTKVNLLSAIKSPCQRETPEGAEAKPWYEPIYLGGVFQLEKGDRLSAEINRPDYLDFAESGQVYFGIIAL
Briefly: SPR (Biacore), antibody captured on Protein A, TNFα as analyte, single cycle kinetics, 25 C. For orientation: In SPR one partner is held on a chip, and binding of the other changes the refractive index at the surface.
Experimental: Affinity to TNFα was measured by Biacore. A CM5 chip was prepared using standard amine immobilisation Biacore procedures. Upon insertion of a CM5 chip the system was primed and then normalised with BIA-normalising solution (Biacore Preventative Maintenance Kit 2). The chip was added to the system with PBS-T running buffer; prior to immobilisation the chip surface was primed with three injections of 50 mM NaOH. Protein A was immobilised on the chip surface. For this, the protein was diluted to 5 μg/mL into 10 mM acetate buffer at pH 4.5 and injected so to generate a bound response of ˜1000 RU's in all 4 flow cells. To remove non-covalently bound material from all the chip flow cells, three 15 second 50 mM NaOH washes were performed. On the Protein A chip, antibody was captured in flow cells 2 and 4, with flow cells 1 and 3 used for reference subtraction. The trial antibodies were diluted in PBS-T to 10 nM and 2.5-7.5 uL injected to obtain 120 RU of captured antibody. […] For each single cycle analysis cycle a titration of 5 analyte concentrations were injected over the ligand and then the dissociation of the complex was measured. The surface was regenerated using glycine pH 1.7. A double referencing method was employed in which data from the ligand bound capture surface (fc 2 and 4) were subtracted from the references surfaces where no ligand was captured (fc 1 and 3 respectively). Blank injections of buffer were run every 3-4 cycles and then subtracted from analyte injection cycles, to correct for small changes in the ligand capture surface. Repeat injections of analyte at the start and end of each analytical run were used to check for sample degradation, or changes in the instrument performance. All analysis was performed at 25° C. and the sample rack was incubated at 10° C. during experimental runs. Each experiment was run at least three times. A 1-to-1 binding model was used to fit the resulting kinetic data.

Assay [3] deals with T6, monomeric His-tagged human FcRn (human, UniProt P55899 24-297; P61769 21-119).
T6 construct: also called hFcRn
T6 sequence (P55899 24-297 limits assumed, chain 1 of 2): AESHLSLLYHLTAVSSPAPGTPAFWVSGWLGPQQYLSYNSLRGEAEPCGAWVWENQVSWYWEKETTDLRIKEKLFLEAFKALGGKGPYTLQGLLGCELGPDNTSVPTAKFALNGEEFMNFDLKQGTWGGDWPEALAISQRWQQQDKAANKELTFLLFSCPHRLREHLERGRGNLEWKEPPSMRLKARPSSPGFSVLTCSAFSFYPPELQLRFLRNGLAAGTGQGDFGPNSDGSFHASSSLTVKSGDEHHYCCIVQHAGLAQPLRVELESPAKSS
T6 sequence (P61769 21-119 limits assumed, chain 2 of 2): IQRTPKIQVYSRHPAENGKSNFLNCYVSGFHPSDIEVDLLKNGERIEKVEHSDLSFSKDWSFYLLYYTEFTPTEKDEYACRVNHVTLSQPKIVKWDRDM
Briefly: SPR (Biacore 3000), antibody amine-coupled, monomeric His-tagged hFcRn injected, pH 6.0; pH 6.0.
Experimental: (§2) SPR was performed using a Biacore 3000 instrument with CM5 sensor chips coupled with anti-TNFα IgG1 antibodies (˜500 resonance units (RU)) using amine-coupling chemistry as described by the manufacturer. The coupling was performed by injecting 2.0 ug/mL of each protein in 10 mM sodium acetate, pH 4.5, using the amine-coupling kit (GE Healthcare). […] All SPR experiments were conducted at 25° C. with a flow rate of 40 ul/min. Binding data were zero-adjusted, and reference cell value subtracted. The Langmuir 1:1 ligand binding model provided by the BIAevaluation software (version 4.1) was used to determine the binding kinetics.

The next assay deals with T7, CD16b(NA2) (UniProt O75015 17-200, limits assumed).
T7 construct: His-tagged
T7 sequence (O75015 17-200 N65S limits assumed): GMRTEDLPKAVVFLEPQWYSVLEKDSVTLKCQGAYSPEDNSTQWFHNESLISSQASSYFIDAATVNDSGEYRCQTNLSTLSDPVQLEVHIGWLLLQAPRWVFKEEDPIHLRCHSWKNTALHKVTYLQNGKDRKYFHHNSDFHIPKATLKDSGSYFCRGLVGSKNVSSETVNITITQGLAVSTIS
Briefly: SPR (Biacore), His-tagged FcγR captured on anti-His chip, antibody as analyte.

A further assay concerns the target T8, CD16a(F) (UniProt P08637 17-208).
T8 construct: His-tagged
The description is as above.

For assay [4], the target named is T6, monomeric His-tagged human FcRn. Put plainly: SPR, pH 6.0; KD against that of Ab-wt; pH 6.0; fold change from wt.
Experimental: as §2
For assay [5], the target named is T5, human TNFα. Briefly: cell-based or functional assay.
Assay [6] has as its target T1, CD16a(V). Put plainly: SPR (Biacore), His-tagged FcγR captured; reference not named in the sentence (Ab-wt by Table 5).
Experimental: Affinity to FcγRs was measured by Biacore. A CM5 chip was prepared using standard amine immobilisation Biacore procedures. Upon insertion of a CM5 chip the system was primed and then normalised with BIA-normalizing solution (Biacore Preventative Maintenance Kit 2). The chip was added to the system with Phosphate Buffered Saline Tween-20 (PBS-T) running buffer; prior to immobilisation the chip surface was primed with three injections of 50 mM NaOH. FcγRs were immobilised on the chip surface using a His-tag capture system. The anti-His tag chip was prepared according to the Biacore kit instructions, with ˜12000 RU's of the antibody deposited on all 4 flow cells. To remove non-covalently bound material from all the chip flow cells, three 30 second 10 mM glycine pH 1.5 washes were performed. The Fcγ receptors were diluted in PBS-T to a range of 0.5-2 μg/mL, with 2.5-5.0 μL injected onto the chip generating capture levels between 60 and 200 RU's. Antibodies were diluted into PBS-T prior to analysis. Single cycle kinetics were used to estimate the steady state affinity. For each single cycle analysis cycle a titration of 5 antibody concentrations were injected over the FcγR ligand and then the dissociation of the complex was measured. The surface was regenerated using the recommended solution, 10 mM glycine pH 1.5 for the anti-His capture surface. […]
The next assay concerns the target T9, CD32a(R) (UniProt P12318 36-218).
T9 construct: His-tagged; also called Fcγ receptor CD32a(R)
T9 sequence (looked up): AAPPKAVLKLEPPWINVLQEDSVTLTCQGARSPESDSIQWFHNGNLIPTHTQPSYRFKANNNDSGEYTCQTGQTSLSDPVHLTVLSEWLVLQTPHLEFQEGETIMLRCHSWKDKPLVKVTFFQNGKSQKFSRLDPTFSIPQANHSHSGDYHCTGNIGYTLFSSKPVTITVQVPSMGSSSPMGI
Briefly: SPR (Biacore), His-tagged FcγR captured on anti-His chip, antibody as analyte.

The target of assay [7] is T6, monomeric His-tagged human FcRn. Put plainly: SPR, pH 6.0; KD against that of IFX; pH 6.0; fold change from IFX.
Experimental: as §2

T1 sequence (P08637 17-208 F176V limits assumed): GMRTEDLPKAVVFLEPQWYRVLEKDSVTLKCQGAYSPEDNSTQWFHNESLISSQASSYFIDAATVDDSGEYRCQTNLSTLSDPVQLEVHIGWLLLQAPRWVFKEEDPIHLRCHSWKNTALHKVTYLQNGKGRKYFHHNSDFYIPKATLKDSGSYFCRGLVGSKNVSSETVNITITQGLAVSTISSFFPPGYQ
human C1q, sequence (P02745 23-245, chain 1 of 3): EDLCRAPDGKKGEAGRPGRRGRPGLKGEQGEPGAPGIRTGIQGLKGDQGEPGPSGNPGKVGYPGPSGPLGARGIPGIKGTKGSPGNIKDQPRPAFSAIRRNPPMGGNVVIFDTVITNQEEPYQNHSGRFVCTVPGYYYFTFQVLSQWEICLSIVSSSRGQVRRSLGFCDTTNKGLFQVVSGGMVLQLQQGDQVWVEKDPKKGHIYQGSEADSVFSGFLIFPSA
human C1q, sequence (P02746 28-253, chain 2 of 3): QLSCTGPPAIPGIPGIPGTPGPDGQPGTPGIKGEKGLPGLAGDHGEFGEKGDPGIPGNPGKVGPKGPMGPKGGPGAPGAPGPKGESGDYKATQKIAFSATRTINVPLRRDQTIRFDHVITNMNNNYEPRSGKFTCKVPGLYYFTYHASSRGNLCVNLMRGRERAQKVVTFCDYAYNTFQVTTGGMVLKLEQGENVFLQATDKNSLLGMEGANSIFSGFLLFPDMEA
human C1q, sequence (P02747 29-245, chain 3 of 3): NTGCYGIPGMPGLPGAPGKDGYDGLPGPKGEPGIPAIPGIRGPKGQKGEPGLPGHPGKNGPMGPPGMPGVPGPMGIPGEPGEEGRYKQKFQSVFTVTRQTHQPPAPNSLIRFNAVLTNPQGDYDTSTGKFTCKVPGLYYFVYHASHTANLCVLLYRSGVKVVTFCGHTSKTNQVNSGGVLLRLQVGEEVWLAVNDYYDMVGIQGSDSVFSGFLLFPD
T8 sequence (P08637 17-208 limits assumed): as the sequence (P08637 17-208 F176V limits assumed) above, with V160F counted along it
Experimental for CD16a(F): as §1
Experimental for CD16b(NA2): as §1
Experimental for CD32a(H): as §1
Experimental for CD32a(R): as §1
Experimental for CD32b: as §1
Experimental for CD64: as §1
Experimental for human C1q: ELISA was performed using 96-well MaxiSorp plates where the wells were coated with human TNFα diluted to 1 μg/mL in PBS. After incubation O/N at 4° C., the plates were blocked with PBS containing 4% skimmed milk for 1 h and washed four times with PBS containing 0.05% Tween-20 (PBS-T). Then, titrated amounts of the anti-TNFα IgG antibodies were diluted in PBS-T, added and incubated for 1 h at RT. After washing using PBS-T, human C1q (0.5 μg/mL) was diluted in 0.1 M Veronal buffer (0.25 mM CaCl₂ and 0.8 mM MgCl₂ pH 7.2), added to the wells and incubated for 1 h. Subsequently, the wells were washed as above before rabbit anti-human C1q diluted 1:5000 in PBS-T was added to the wells and incubated for 1 h. After washing, an HRP-conjugated anti-rabbit IgG from donkey diluted 1:5000 in PBS-T was added. Subsequently, the wells were washed and 100 μL 3,3′,5,5′-Tetramethylbenzidine substrate was added to each well. The absorbance was measured at 620 nm using a Sunrise spectrophotometer.

B1: infliximab (antibody)
chain 1: not shown
chain 2: DILLTQSPAILSVSPGERVSFSCRASQFVGSSIHWYQQRTNGSPRLLIKYASESMSGIPSRFSGSGSGTDFTLSINTVESEDIADYYCQQSHSWPFTFGSGTNLEVKRTVAAPSVFIFPPSDEQLKSGTASVVCLLNNFYPREAKVQWKVDNALQSGNSQESVTEQDSKDSTYSLSSTLTLSKADYEKHKVYACEVTHQGLSSPVTKSFNRGEC
In general, EC50 (read off the curve) refers to the concentration giving half of the maximal effect. A high value points to lower potency in that assay. Regarding B1, the “EC50 (read off the curve)” value with human C1q is about 0.5 µg/mL.

B2: Ab-wt (antibody, human IgG1, kappa)
heavy: not shown
light: DIQMTQSPSSLSASVGDRVTIKCQASQSIFSGLAWYQQKPGKAPKLLIYGASKLASGVPSRFSGSGSGTEFTLTISGLQPADFATYYCQSYYYSSSSSDGSYAFGGGTKLTVLGRTVAAPSVFIFPPSDEQLKSGTASVVCLLNNFYPREAKVQWKVDNALQSGNSQESVTEQDSKDSTYSLSSTLTLSKADYEKHKVYACEVTHQGLSSPVTKSFNRGEC
notes: Human IgG1 anti-TNFα antibody with wild-type Fc; also called parent antibody; wild-type antibody
As a reminder, the Kd is the equilibrium constant for the complex coming apart. A higher Kd goes with lower affinity. A word on the koff: it is a measure of how fast the partners let go of each other. The kon is the second-order rate constant of association. Low readings indicate slow association, high ones fast association. In the case of B2, the Kd was found to be 184 nM with CD16a(V) [1]; 670 nM with CD32a(H); 2.92 nM with CD64; 3140 nM in the assay with CD32b; 0.00413 nM in the assay with human TNFα [2]; 1000 nM in assay [3]. Moreover, in the assay with human TNFα [2], the koff is 3.45e-05 s⁻¹. This molecule gave a kon with human TNFα [2] of 8.37e+06 M⁻¹ s⁻¹.

B3: Ab-REW-2FF (antibody, human IgG1, kappa)
heavy: EVQLVESGGGLVQPGGSLRLSCKASGIDFNNYGIGWVRQAPGKGLEWITYIYPGFAITNFANSVKGRFTISSDNSKNTVYLQMNSLRAEDTAVYYCARDPVYATSSGYFDLWGQGTLVTVSSASTKGPSVFPLAPSSKSTSGGTAALGCLVKDYFPEPVTVSWNSGALTSGVHTFPAVLQSSGLYSLSSVVTVPSSSLGTQTYICNVNHKPSNTKVDKKVEPKSCDKTHTCPPCPAPELLGGPSVFLFPPKPKDTLMISRTPEVTCVVVDVSHEDPEVKFNWYVDGVEVHNAKTKPREEQYNSTYRVVSVLTVLHRDWLNGKEYKCKVSNKALPAPIEKTISKAKGQPREPQVYTLPPSREEMTKNQVSLTCLVKGFYPSDIAVEWESNGQPENNYKTTPPVLDSDGSFFLYSKLTVDKSRWQQGNVFSCSVEHEALHWHYTQKSLSLSPGK
light: DIQMTQSPSSLSASVGDRVTIKCQASQSIFSGLAWYQQKPGKAPKLLIYGASKLASGVPSRFSGSGSGTEFTLTISGLQPADFATYYCQSYYYSSSSSDGSYAFGGGTKLTVLGRTVAAPSVFIFPPSDEQLKSGTASVVCLLNNFYPREAKVQWKVDNALQSGNSQESVTEQDSKDSTYSLSSTLTLSKADYEKHKVYACEVTHQGLSSPVTKSFNRGEC
modifications: N-glycans at N297 (EU numbering) with greatly reduced fucose (13% fucosylated), made with 2-deoxy-2-fluoro-fucose (2FF) in the culture medium
notes: IgG1; also called non-fucosylated variant of Ab-REW
As to B3, the Kd amounted to 400 nM with CD16b(NA2); 33.5 nM with CD16a(V) [1]; 150 nM with CD16a(F); 1870 nM with CD32a(H); 1450 nM in the assay with CD32a(R); 2.93 nM in the assay with CD64. The Kd was found to be 1130 nM with CD32b and 6.24 nM in [3]. For the same molecule, the “Fold change from wt” value in [4] was 160 fold. Moreover, the 50% effective concentration (EC50 (read off the curve)) with human C1q is about 0.6 µg/mL. The “IC50 (read off the curve)” value with human TNFα [5] was about 0.007 µg/mL. Moreover, the “fold increase in affinity” value with CD16a(V) [6] turned out to be 5.5 fold. The “Fold change from IFX” value in [7] came to 68.1 fold. The molecule further displayed a kon in the assay with human TNFα [2] of 5.8e+06 M⁻¹ s⁻¹.

B4: Ab-REW (antibody, human IgG1, kappa)
heavy: EVQLVESGGGLVQPGGSLRLSCKASGIDFNNYGIGWVRQAPGKGLEWITYIYPGFAITNFANSVKGRFTISSDNSKNTVYLQMNSLRAEDTAVYYCARDPVYATSSGYFDLWGQGTLVTVSSASTKGPSVFPLAPSSKSTSGGTAALGCLVKDYFPEPVTVSWNSGALTSGVHTFPAVLQSSGLYSLSSVVTVPSSSLGTQTYICNVNHKPSNTKVDKKVEPKSCDKTHTCPPCPAPELLGGPSVFLFPPKPKDTLMISRTPEVTCVVVDVSHEDPEVKFNWYVDGVEVHNAKTKPREEQYNSTYRVVSVLTVLHRDWLNGKEYKCKVSNKALPAPIEKTISKAKGQPREPQVYTLPPSREEMTKNQVSLTCLVKGFYPSDIAVEWESNGQPENNYKTTPPVLDSDGSFFLYSKLTVDKSRWQQGNVFSCSVEHEALHWHYTQKSLSLSPGK
light: DIQMTQSPSSLSASVGDRVTIKCQASQSIFSGLAWYQQKPGKAPKLLIYGASKLASGVPSRFSGSGSGTEFTLTISGLQPADFATYYCQSYYYSSSSSDGSYAFGGGTKLTVLGRTVAAPSVFIFPPSDEQLKSGTASVVCLLNNFYPREAKVQWKVDNALQSGNSQESVTEQDSKDSTYSLSSTLTLSKADYEKHKVYACEVTHQGLSSPVTKSFNRGEC
notes: IgG1; also called REW containing variant; Q311R/M428E/N434W variant of Ab-wt
For B4, the Kd in the assay with CD16b(NA2) is 1650 nM; in the assay with CD16a(V) [1], 280 nM; with CD16a(F), 2410 nM; with CD32a(H), 780 nM; in the assay with CD32a(R), 1600 nM; with CD64 it was 2.8 nM. The Kd with CD32b is 1210 nM; in the assay with human TNFα [2], 0.0033 nM; in assay [3], 5.61 nM. In addition, in [4], the “Fold change from wt” value worked out at 178 fold. Also, in the assay with human C1q, the “EC50 (read off the curve)” value was about 0.4 µg/mL. Besides, in the assay with human TNFα [5], the “IC50 (read off the curve)” value was about 0.007 µg/mL. For the same molecule, in assay [7], the “Fold change from IFX” value stood at 75.8 fold. In the assay with human TNFα [2], the koff was determined as 2.04e-05 s⁻¹. The molecule also displayed a kon in the assay with human TNFα [2] of 6.22e+06 M⁻¹ s⁻¹.
